Experimental data from publication PMC11804915, “Single-stranded DNA binding to the transcription factor PafBC triggers the mycobacterial DNA damage response”.

Columns and labels:
Conditions in all cases: protein: recombinant; tags: C-terminal Strep on PafC; copies: 1;1; label: FAM; single strand
PafBC WYL RR = target: T1, PafBC WYL RR (Mycobacterium smegmatis, UniProt A4ZHT0;A0QZ41 1-331;1-318, R211A;R214A;R201A;R204A); assay: EMSA; up to 16 uM; ssDNA EMSA: 22.5 mM Hepes-KOH pH 7.8, 135 mM NaCl, 20 mM KCl, 5 mM MgCl2, 1 mM DTT, 37 C 15 min, 10 nM DNA, 0-16 uM PafBC; RNAP EMSA: 20 mM Hepes-NaOH pH 8, 100 mM K-acetate, 36 mM NaCl, 10 mM MgCl2, 2 mM DTT, 37 C 30 min
T1 sequence 1: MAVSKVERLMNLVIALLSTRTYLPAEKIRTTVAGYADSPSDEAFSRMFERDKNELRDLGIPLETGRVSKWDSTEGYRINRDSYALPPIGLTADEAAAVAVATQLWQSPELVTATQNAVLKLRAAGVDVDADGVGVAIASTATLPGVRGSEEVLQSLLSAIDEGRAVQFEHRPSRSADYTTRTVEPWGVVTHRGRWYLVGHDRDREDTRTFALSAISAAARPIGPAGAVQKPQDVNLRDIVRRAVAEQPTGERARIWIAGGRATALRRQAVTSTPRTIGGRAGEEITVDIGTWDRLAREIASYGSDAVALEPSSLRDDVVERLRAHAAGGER
T1 sequence 2: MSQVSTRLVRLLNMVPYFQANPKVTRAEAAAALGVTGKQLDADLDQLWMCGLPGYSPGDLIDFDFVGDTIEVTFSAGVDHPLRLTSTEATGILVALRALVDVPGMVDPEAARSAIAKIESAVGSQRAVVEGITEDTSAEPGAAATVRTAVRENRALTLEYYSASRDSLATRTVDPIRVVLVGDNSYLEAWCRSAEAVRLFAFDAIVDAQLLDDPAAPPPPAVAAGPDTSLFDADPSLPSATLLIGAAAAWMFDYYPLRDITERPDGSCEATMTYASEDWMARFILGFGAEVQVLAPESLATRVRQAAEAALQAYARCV

PafBC, PafB Y196A = target: T2, PafBC, PafB Y196A (Mycobacterium smegmatis, UniProt A4ZHT0;A0QZ41 1-331;1-318, Y196A); assay: as above
T2 sequence 1: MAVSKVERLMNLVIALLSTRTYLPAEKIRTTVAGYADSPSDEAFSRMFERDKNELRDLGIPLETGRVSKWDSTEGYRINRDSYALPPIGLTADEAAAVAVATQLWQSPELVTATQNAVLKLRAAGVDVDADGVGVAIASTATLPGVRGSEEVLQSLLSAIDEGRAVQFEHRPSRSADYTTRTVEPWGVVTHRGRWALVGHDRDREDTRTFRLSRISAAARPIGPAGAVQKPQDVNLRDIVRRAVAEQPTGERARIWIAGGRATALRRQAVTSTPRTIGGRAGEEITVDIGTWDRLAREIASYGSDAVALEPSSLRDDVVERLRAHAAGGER
T2 sequence 2: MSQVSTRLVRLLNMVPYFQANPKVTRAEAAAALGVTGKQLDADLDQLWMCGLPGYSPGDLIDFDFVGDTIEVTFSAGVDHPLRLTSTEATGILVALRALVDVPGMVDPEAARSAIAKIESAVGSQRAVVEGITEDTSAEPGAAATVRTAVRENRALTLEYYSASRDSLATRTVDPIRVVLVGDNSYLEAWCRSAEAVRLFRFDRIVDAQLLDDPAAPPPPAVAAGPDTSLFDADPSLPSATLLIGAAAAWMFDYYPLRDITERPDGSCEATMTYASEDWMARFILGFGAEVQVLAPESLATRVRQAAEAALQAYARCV

PafBC, PafB WYL variant = target: T3, PafBC, PafB WYL variant (Mycobacterium smegmatis, UniProt A4ZHT0;A0QZ41 1-331;1-318, R214A;PafB:R211A); assay: as above
T3 sequence 1: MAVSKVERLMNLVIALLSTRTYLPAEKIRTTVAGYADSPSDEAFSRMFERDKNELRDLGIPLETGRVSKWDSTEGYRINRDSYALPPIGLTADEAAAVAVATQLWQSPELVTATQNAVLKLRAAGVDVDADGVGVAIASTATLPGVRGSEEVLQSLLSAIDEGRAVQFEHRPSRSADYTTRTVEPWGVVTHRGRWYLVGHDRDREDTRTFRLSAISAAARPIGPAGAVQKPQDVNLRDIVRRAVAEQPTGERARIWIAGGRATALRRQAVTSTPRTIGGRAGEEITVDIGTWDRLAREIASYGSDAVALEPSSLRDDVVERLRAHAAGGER
T3 sequence 2: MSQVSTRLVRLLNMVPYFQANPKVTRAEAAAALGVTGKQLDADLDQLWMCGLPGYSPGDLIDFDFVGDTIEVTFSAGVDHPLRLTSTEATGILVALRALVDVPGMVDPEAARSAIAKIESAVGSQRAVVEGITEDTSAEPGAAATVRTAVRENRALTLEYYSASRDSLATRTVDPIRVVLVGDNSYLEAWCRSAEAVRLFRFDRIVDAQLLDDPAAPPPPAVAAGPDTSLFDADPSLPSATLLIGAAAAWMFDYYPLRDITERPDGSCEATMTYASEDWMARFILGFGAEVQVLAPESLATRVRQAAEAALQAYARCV

PafBC, PafC WYL variant = target: T4, PafBC, PafC WYL variant (Mycobacterium smegmatis, UniProt A4ZHT0;A0QZ41 1-331;1-318, R201A;R204A); assay: EMSA; affinity comparable to WT; ssDNA EMSA: 22.5 mM Hepes-KOH pH 7.8, 135 mM NaCl, 20 mM KCl, 5 mM MgCl2, 1 mM DTT, 37 C 15 min, 10 nM DNA, 0-16 uM PafBC; RNAP EMSA: 20 mM Hepes-NaOH pH 8, 100 mM K-acetate, 36 mM NaCl, 10 mM MgCl2, 2 mM DTT, 37 C 30 min
T4 sequence 1: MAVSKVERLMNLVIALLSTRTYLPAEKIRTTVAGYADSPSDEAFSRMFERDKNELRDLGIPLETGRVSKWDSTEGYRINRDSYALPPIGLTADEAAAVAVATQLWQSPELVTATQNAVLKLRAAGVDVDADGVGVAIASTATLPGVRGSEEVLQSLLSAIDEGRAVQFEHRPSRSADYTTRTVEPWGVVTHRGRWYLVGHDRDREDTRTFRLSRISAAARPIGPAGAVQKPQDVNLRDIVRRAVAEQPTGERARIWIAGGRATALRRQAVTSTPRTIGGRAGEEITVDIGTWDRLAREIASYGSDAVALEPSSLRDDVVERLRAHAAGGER
T4 sequence 2: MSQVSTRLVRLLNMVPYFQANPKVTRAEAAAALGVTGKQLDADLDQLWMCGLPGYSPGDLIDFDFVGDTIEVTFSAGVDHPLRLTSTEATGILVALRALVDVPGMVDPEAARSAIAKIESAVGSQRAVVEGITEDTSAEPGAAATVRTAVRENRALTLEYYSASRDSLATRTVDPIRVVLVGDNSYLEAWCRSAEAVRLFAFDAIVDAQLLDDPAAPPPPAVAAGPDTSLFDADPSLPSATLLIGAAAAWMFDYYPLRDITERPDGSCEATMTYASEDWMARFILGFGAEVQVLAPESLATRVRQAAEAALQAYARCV

Question: Which results are given for TTTTTTTTTTTTTTTTTTTT (ssDNA) [dT20 ssDNA]?
Answer: binding result (PafBC WYL RR): no binding; binding result (PafBC, PafB Y196A): no binding; binding result (PafBC, PafB WYL variant): no binding; binding result (PafBC, PafC WYL variant): binds
